Laboratory results reported in the domain aggregation screens of Martell et al. (2025).

Assay: soluble fraction after stress (log2 fold change); higher = more stays soluble; pooled small domains, quantitative proteomics
Settings: stress: 75 degC
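Note: 20 min heating vs room temperature control held 20 min.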

Sequence | soluble fraction (log2)
HMGGVTVQNRETHVNSTVNVRSEQTTESERVALAYQGDAITQIESYENGWSKVEYKGLSGYVMTEYL | 0.275
HMGGYLIGDVAQMVGLSRDALRFYEKKGIIRADKKENGYRYYSEDDIYRLMYILYHRKMNTSLEEIGGLMS | -0.722
HMGHKKLTIELQDEIIVLPKELEKYNLTVSDDKTSLIYTYKSRGEKTGITDLLRDIKDAGLRLKDLITEQ | 0.284
HMGHTVHAVPEAADRQRLDVFVGNLHPTISRAYIQKLSKEDQILVNGKPEKAGFKLRTGHSVSVPDMSE | 0.00554
HMGIAEAKRVIVRTLHDVLGPEADFLTEKIDVAQTAAELRVHAEKYRDMLVDMGKPKKSAAFWEAFEAALP | -0.588
HMGIAKLLTEQEYKIALLAAERRTNAMIAEEMNLTENTVKTHLKHIFDKVGIAGNAKNKRHLLADMMNSER | -0.552
HMGIDISAFSETALQVLRLQAAGYTAKEISEKLHITPRTVKYHASQNYRKLDAKNLVDAVQIAQALHI | -1.79
HMGIEQVELASRVRDAVDSLPHHLREIILLSYFQKMSYNQIAETLQVPLGTVKSRLHAAVASFAQAWTQSS | -0.712
HMGIFAQTTKWRDIYTVKKKDTIFGIANKYGLSLPELMEANPEMKQEGYMLQKGTTLFIPFASD | -1.32
HMGIGSTLTDGVRVYASDDEIVVNAPAESDVRIFNAGGAQLYAGRVADVRVAVAKGLYVVTVDGRSTKITV | -1.11
HMGIILDWELFEQFADKLKRKKVDFVIEPYLRFEGRRGEQSTLFIKDPSGNYLEFKAFKNIDMLFEK | -1.78
HMGIPIEAYHESLHRHYIDLWELLDTGKETLIDAEGNEVDKIHLLNAIRFNVNGMLHELLKE | -1.91
HMGIQYVASGHYARMETDAQGVSRLFPPESGAPDESDRLAALSPEVLTRLILPLGDFAPEDVEEMAVD | -0.0745
HMGIRAFDPEAFDERLKEFFSMIAPYKKLDTRSLQPHFPHHAKEVAERIRQLAEAGKIKVDGFYISEL | -0.587
HMGIRDIHITVNGESLKLSKKQNYIFVDIFDFYPFDLSILGGSKLITTINGEQAEFTSPLKDGDVVELYWK | -2.25
HMGISNEETFLLEKMSSGRRYSRKELDNLMGFEKTKTIRLLGSLINKGLVVAEGVNRARRYIR | -1.27
HMGISQAQAMQALRKLIEEEDKHTPLSDQTLMERLKAAGIPLARRTIAKYRESLGIPSAAQRK | -0.266
HMGISVEVPDLKNMSVAEAGSLLKNSGLSYAVVDSDYVKTISPGKILDQNPGRGLRVKKGRIVYLTINSL | -1.69
HMGITDHIYQDLKKRLENGNYPAGTRFPSESTLADEFSVNKMTMNKIVSMLAEQGYLIRGNRGAGTRVAEN | -0.399
HMGITPSIEMILEYFAFKESSETEANKFFNYYSSIGWLVGGKTKMKDWKASARNWIMNQNKFQ | -4.63
HMGIVAPGTLKHLHAVGNSYYPDWETKRHELVTAVTKGRTSSSKELYEAEANRLITRIEELLMTAAQSV | -0.113
HMGIVTMPGQGSKMRFDFDATGDLPSSTSWRGMFAYANNTKRAYVSTGTTMGGYNGWRQLIAMDEYGNYQT | 0.0821
HMGKEIEAPDFKNMTLKEAKIAAKEYKIRIKKGDEVVSEEVEKGRIVSQDPDAGTTIKTGSTVTVNISKGL | 0.131
HMGKELSTVVVPDLTGLSVLEARNVLTKVGLQLTPSGAGIAFKQIPTPGTRLTLGATVTVYFVATGY | -1.47
HMGKELTVPDVVGQNYVSAQEKLIAGGFQVEVADSVYDSRYGRGVVVDQNPHKDTRVKPGRLIYVTVNA | -0.157
HMGKEWPTPDNVEEWKKLVKKARLWPIQADQAQSEETRERNRKKWELFVAYAKRFGYRAGIGETGKPFVNN | -1.15

Sequence | soluble fraction (log2)
HMGKINEIVANNIAILRKKNRLSLEELGKLSGVSKSMLALIEKGDGNPTLGILWKIANGLGVPFDELTRRP | -1.35
HMGKLGENIKRIREGMGLSQRQFGELIGKSDSQIWSYENDRTDILASTLYKIAAVANVDFNNLMAGIIP | -1.07
HMGKLYRDRYAPLEPDGARAGDRVFIISLEKEGTLERIDLPRKTATVLLGSSIRSTFPLDDLYQPRG | -0.25
HMGKMTSTLGVHIAAYRKEHGETVAQFASRSGVSVSSIRRIESGISDPSADLVWKISRHMGMTMDDLFKKM | -3.74
HMGKNISEEDMLGYFKKIDLDYDAETKEVIAPTFRHDLFRLADLAEEVARFFGYDNIPTTLPSGEAT | 0.185
HMGKPAGLIRELGNHPEDEKPVTLNNGRFGPYVKHGKVMASLTKADSPDDITFDRAIELIAIKAEKMAAKG | 0.173
HMGKPTPASQVATRWLTGNLPESLPVAGPAPSFEALARTVSTDLHPRSVLQELVRLGVAEEANGVVTLRRQ | 0.0474
HMGKPVTMELLIPYSQGSLVHRISEAGEVAKTEYQNDGTYMQVTFTPSAKDHALMQEVASYRI | 0.653
HMGKSDDSLAAEKFIQHVRKNGELSYEQAYRMVHAYFPDFRNFEGMVSGAVKSGYLILIQKSTGLFLRAKE | -3.68
HMGKTEMPFSTFLTEVDKGNIVSVDIRGSEISGNFRDGKGFKTYSPNYPNLVEKLSAKGVAITAGPR | 0.389
HMGKTKFTEMSALELKAYAELNNNSMHWVYRMLYIGGGDVGFRKGMKELGYSGKFIWMTLERLKKS | -1.24
HMGKTTQEIEERSSTSTLTLTQTPKEIISVQGKKSDQSFFTNIQYTQNGKVIVPKQTGIYDTIKVVFTVSL | -1.48
HMGKVLIYKPNMSVSDVAIRLGISNAEIIKRLMGLGVMTSINQTIDRDTIELVAMDLGFSIEN | -1.81
HMGLAGVQSDVKVSFDGDLLVVTSDIARSFNLFAVDGRLIRSVNLIAGRNEIRGLERGFYLAEKQKIFV | -1.93
HMGLAWTVEGRTVLLGRTADRIELYNVGGGLVALARESDRISAPGVGLYVVRVVSDGQSVSQKIWIT | -2.39
HMGLDMSLEREQHRALREASQWYARLADEQVDSDAERAWRHWVAADEANQRAWQYIEAVSQRFDG | -0.605
HMGLDNEGFERLRQKITRLLSEEALPVKELVDSFASKMRQEVLETLAFLQQEGVIEEKNGKLFLK | -0.189
HMGLIDNLTRIMEKKNISAYQLEKAGIVKQTTFTSWKKGTQPALDKIIKIMQYIEVTPNELFGY | -2.95
HMGLKWVYYTNIEPDGNKINNQKLYDILKQKFVYPVIISRDELDSMELKDLTYDSYIDVEGRYFKPYNLD | -2.04
HMGLNPSILVKLGNANIKTIDNLADLASDELKEILEDISITSKEADEIIMRARSSWFEEDDKKEDNI | 0.0765
HMGLPAWVPQNYIDRVTAIYDYSADKDDELTFNEGSTIFVLKKNDDGWWEGVMDGVTGLFPGNYVEAT | -0.971
HMGLQLTPVRRRVLEILLHEHRALGAYDILDKLRSEGLGSQPPVAYRALDFLVTHGFAHKIERLNAF | -0.829
HMGLQRLTVSPEDAGVRIDKYLAEQLPDITRSYLQKLLKDGSVQMNGKPVKASTKTAVGAVIALTIPEP | -0.26
HMGLSAEAARMAIQDAGLSKEDFAQKLGIKKVERVVEWEAGTSKPTFVQAQKIANATNIPFGYLFLVNPPK | 0.285
HMGLTRRAQLEVADANLKRLYPGMHQSWVTAIAEYLHSSYWRYINSLEPEYAASIQRVYEQHIDAM | -0.0229
HMGLTYEQILTDVQRFVTQNHADTLSNEGNPEEARKLLKDYILQYVQNRSYHVDGQTTEELVDSLYED | -0.231

Sequence | soluble fraction (log2)
HMGLVDSLEPLLRRVYEALPQRRSMTTERLAVAAGLDEESVKVALARLQLSAFVGVDERGWHRSL | -2.98
HMGLVLIDSYNDIGSAKLITNKIRNLGLIFEENENKINVFAGPFEKNDINLKIDFLIRNGYTNAQLY | -3.08
HMGLVQQSAQKSDDAAKLMAANNLNAAQSKYQLPDEAEKDFFTFAFERGYAVEDFVDAGLVDKIMADFSA | -0.447
HMGLVVIGTEAGYPAEKAGILAGDRIRKLNGAAVPDYDTFLTALAARKGEPSAIELERDGKTLEVTVSPL | 0.105
HMGLWWTEAERELVKTTIEQLYKDTNIAEPVDSKNLRASIPALKAMRTGLSAENQARVDTLLGALQV | -0.462
HMGMAGILDSARMASFIQEKLGYGGGQIRASVMGGHGDDMVPLPRYSTVAGVPLSDVLTQNEIDEMFAQ | -0.0337
HMGMDALIGRRVFVSEEILPGDTGGRMAVDGDSWRAISVGTASNIPAGTEVRIRGHQSLVLEVEP | -0.169
HMGMEENLLKERKQILMDIMKSKEYQPMKVKELAMVLNVPKEDREELRYVLNELMNEGKIVESKKGKFSIA | 0.129
HMGMESFWNRVANLLNTSTVVELAQILDVKRSTLSSWIHSDRRPPMEVLLKITRLTGVDIHRLE | -2.59
HMGMETQLSPKEKSIYTIIQNRPNIQSGEVSEKLAIPLPTVKRILSDLINKGLIEKQGSGRNVSYTI | 0.338
HMGMFNENLRFLRQKRQMSQQAFASILGIPRTTYSEYEKGNTEPNLKLLIRLSELLDVSLDNLISDDLTHN | -2.82
HMGMKTSQKLARQREIVRLIRAQTIRTQAELADALRERAFPVSQPTLSKDIAELGLIKVPLPDSGYRYQLP | -1.73
HMGMNKEHFIIELKIYLKALNPKDQAIILAKYKALFDARVAEGETEEQVAKSLGKPRVIAEEILKEQGIE | -3.26
HMGMSMNEFLNNRLEQLAVEAVDKSSLGEEIFFYAEPATINLFKDAVDEDEYKVVFPVLKSIIEVEQKLSR | -1.24
HMGMTAPIPGVVLKVSVLPGQKVERGDELLTIEAMKMFNVMRSPSSGTIATVHIKDGDRVVQGQPLVTFA | -0.555
HMGMTTSILDDVIGMGPKRKKALLKAFGSFGALRNATLEEIKQTHTVPEQVAEDVYAVLVQYNSKSE | -0.681
HMGMVKLNEEYLEKVKKHRKELHITQLQISKKLGWSLSRYQRFESGFYKEIEDDAPKKIKEEFGIDYSLL | -0.726
HMGNGALLTLTVKERQVIQLVAEGKSNKQIARDLNVTPETIKSHMKNIFAKLKVDNRAQAAVMVQQ | -2.16
HMGNGDTNERIATLMQILAKQESIINQYGLENPVVSPQMYVRTLKKVVELSGFKDASSYFADIPDGWKA | 0.0405
HMGNIADARRDASYVFLIGEWAKSSNLTEKKLAGLIQSNHLDIKYGITVTDVIADIRKYKNDPTYNPF | -2.19
HMGNIKVPSVMGMTLEGAEKVAKDNGAVIEVLEYKESTEEDGTIIEQSPKADMTVATLEKISVVISGK | 0.161
HMGNIYKALLGKLEKQLGFLPEGTKLPPEQELAEKFGVSKPTLRRALAELAVRGIIVKQNGIGSVVAGS | -0.55
HMGNKKLVLKLSKKLIKIPSFLNIYSVKLTKNGRELEINLDKSQNEAIDIINLIKKNNISFLEFDIKKR | -1.43
HMGNLIIFYDAQTGSAPLLKAVKTSGATLVYEYKNLHGIAIRPSSKTSIEDAIAYFKKVNGVLSVE | -3.77
